The target in assay [1] is human polyclonal IgG (Gammanorm) (human). In words: SPR; ratio of remaining capacity to reference Zvar1.
Assay [2] has the same target. In words: SPR, ligand on chip; signal left after 96-100 CIP cycles 0.5 M NaOH.
For assay [3] the target is unchanged. Nature of the assay: SPR, ligand on chip; CIP cycles 0.5 M NaOH. A general note: In SPR one partner is held on a chip, and binding of the other changes the refractive index at the surface.
Assay [4] shares this target. In words: SPR; ratio to reference Zvar4.
Assay [5] has the same target. Nature of the assay: SPR; ratio to reference Zvar2.

This is an account of results in patent publication US20200283475A1.

For Zvar(N11E,Q32E,K50R)1 (designed binder), the Capacity relative to reference in assay [1] was determined as 1.04. In assay [2], this substance registered a Capacity after 96-100 cycles of 53%.

As for “Zvar(N11K,H18K,D37E,A42R,N43A,L44I)1 (designed binder)”, the Capacity relative to reference in assay [1] was determined as 1.31. The substance also registered a Capacity after 96-100 cycles in assay [2] of 59%.

In the case of “Zvar(N11K,H18K,S33K,D37E,A42R,N43A,L44I,K50R,L51Y)1 (designed binder)”, the Capacity relative to reference in assay [1] was 1.46. Moreover, the Capacity after 96-100 cycles in assay [2] was 67%.

Turning to “Zvar(Q9A,N11E,A29D,Q40V,A42K,N43A,L44I)1 (designed binder)”, the Capacity relative to reference in assay [1] worked out at 1.19. In assay [2], the Capacity after 96-100 cycles was 56%.

Consider “Zvar(Q9A,N11E,A29E,Q40V,A42K,N43A,L44I)1 (designed binder)”, for which the Capacity relative to reference in assay [1] was found to be 1.21. In assay [2], the Capacity after 96-100 cycles was found to be 57%.

Turning to “Zvar(Q9A,N11E,A29F,Q40V,A42K,N43A,L44I)1 (designed binder)”, the Capacity relative to reference in assay [1] worked out at 1.35. This substance gave a Capacity after 96-100 cycles in assay [2] of 62%.

With “Zvar(Q9A,N11E,A29H,Q40V,A42K,N43A,L44I)1 (designed binder)”, the Capacity relative to reference in assay [1] is 1.21. The substance further showed a Capacity after 96-100 cycles in assay [2] of 57%.

As to “Zvar(Q9A,N11E,A29I,Q40V,A42K,N43A,L44I)1 (designed binder)”, in assay [1], the Capacity relative to reference was determined as 1.23. In assay [2], this substance displayed a Capacity after 96-100 cycles of 58%.

Regarding “Zvar(Q9A,N11E,A29K,Q40V,A42K,N43A,L44I)1 (designed binder)”, in assay [1], the Capacity relative to reference is 1.28. For the same substance, the Capacity after 96-100 cycles in assay [2] was 59%.

“Zvar(Q9A,N11E,A29L,Q40V,A42K,N43A,L44I)1 (designed binder)”: in assay [1], the Capacity relative to reference is 1.33. This substance returned a Capacity after 96-100 cycles in assay [2] of 61%.

As to “Zvar(Q9A,N11E,A29M,Q40V,A42K,N43A,L44I)1 (designed binder)”, the Capacity relative to reference in assay [1] stood at 1.32. This substance also gave a Capacity after 96-100 cycles in assay [2] of 62%.

For “Zvar(Q9A,N11E,A29N,Q40V,A42K,N43A,L44I)1 (designed binder)”, the Capacity relative to reference in assay [1] came to 1.3. This substance also had a Capacity after 96-100 cycles in assay [2] of 61%.

Regarding “Zvar(Q9A,N11E,A29Q,Q40V,A42K,N43A,L44I)1 (designed binder)”, in assay [1], the Capacity relative to reference came to 1.28. The substance further came in with a Capacity after 96-100 cycles in assay [2] of 60%.

For “Zvar(Q9A,N11E,A29R,Q40V,A42K,N43A,L44I)1 (designed binder)”, the Capacity relative to reference in assay [1] turned out to be 1.26. In assay [2], this substance had a Capacity after 96-100 cycles of 58%.

With “Zvar(Q9A,N11E,A29S,Q40V,A42K,N43A,L44I)1 (designed binder)”, the Capacity relative to reference in assay [1] turned out to be 1.38. Also, the Capacity after 96-100 cycles in assay [2] stood at 66%.

Turning to “Zvar(Q9A,N11E,A29T,Q40V,A42K,N43A,L44I)1 (designed binder)”, the Capacity relative to reference in assay [1] is 1.28. In assay [2], the Capacity after 96-100 cycles turned out to be 60%.

As to “Zvar(Q9A,N11E,A29V,Q40V,A42K,N43A,L44I)1 (designed binder)”, in assay [1], the Capacity relative to reference came out at 1.32. In addition, the Capacity after 96-100 cycles in assay [2] turned out to be 62%.

For “Zvar(Q9A,N11E,A29W,Q40V,A42K,N43A,L44I)1 (designed binder)”, the Capacity relative to reference in assay [1] amounted to 1.3. The Capacity after 96-100 cycles in assay [2] came out at 60%.

As for “Zvar(Q9A,N11E,A29Y,Q40V,A42K,N43A,L44I)1 (designed binder)”, the Capacity relative to reference in assay [1] was 1.27. This substance also returned a Capacity after 96-100 cycles in assay [2] of 61%.

In assay [3], “Zvar(Q9A,N11E,D37E,Q40V,A42K,N43A,L44I)4 (designed binder)” came in with a Remaining capacity 100 cycles (%) of 81%. For the same substance, in assay [4], the Capacity relative to ref. 100 cycles was found to be 1.13.

In turn, “Zvar(Q9A,N11E,D37E,Q40V,A42R,N43A,L44I)4 (designed binder)” returned a Remaining capacity 100 cycles (%) in assay [3] of 84%. Besides, the Capacity relative to ref. 100 cycles in assay [4] was determined as 1.17.

Consider “Zvar(Q9A,N11E,N28A,Q40V,A42K,N43A,L44I)1 (designed binder)”, for which the Capacity relative to reference in assay [1] amounted to 1.35. The same substance registered a Capacity after 96-100 cycles in assay [2] of 65%.

Consider “Zvar(Q9A,N11E,N28A,Q40V,A42K,N43A,L44I)4 (designed binder)”, for which the Remaining capacity 100 cycles (%) in assay [3] came out at 84%. For the same substance, the Capacity relative to ref. 100 cycles in assay [4] was determined as 1.24.

For the substance Zvar(Q9A,N11E,N43A)4 (designed binder), in assay [3], the Remaining capacity 100 cycles (%) is 81%, the Remaining capacity 200 cycles (%) came to 62% and the Remaining capacity 300 cycles (%) was found to be 41%. Moreover, in assay [4], the Capacity relative to ref. 100 cycles stood at 1.21, the Capacity relative to ref. 200 cycles is 1.72 and the Capacity relative to ref. 300 cycles was 2.56.

Take “Zvar(Q9A,N11E,Q40V,A42K,N43A,L44I)2 with A56, P57 and K58 in linker deleted (designed binder)”: the Remaining capacity 100 cycles (%) in assay [3] was 68%. Further, the Capacity relative to ref. 100 cycles in assay [5] was 1.26.

Regarding “Zvar(Q9A,N11E,Q40V,A42K,N43A,L44I)2 with D2, A3 and K4 in linker deleted (designed binder)”, in assay [3], the Remaining capacity 100 cycles (%) worked out at 70%. Further, the Capacity relative to ref. 100 cycles in assay [5] turned out to be 1.27.

Turning to “Zvar(Q9A,N11E,Q40V,A42K,N43A,L44I,D53F)1 (designed binder)”, in assay [1], the Capacity relative to reference is 1.26. The same substance gave a Capacity after 96-100 cycles in assay [2] of 58%.

Turning to “Zvar(Q9A,N11E,Q40V,A42K,N43A,L44I,D53K)1 (designed binder)”, the Capacity relative to reference in assay [1] turned out to be 1.41. For the same substance, the Capacity after 96-100 cycles in assay [2] turned out to be 65%.

On to “Zvar(Q9A,N11E,Q40V,A42K,N43A,L44I,D53R)1 (designed binder)”, for which, in assay [1], the Capacity relative to reference was 1.3. The same substance gave a Capacity after 96-100 cycles in assay [2] of 60%.

Consider “Zvar(Q9A,N11E,Q40V,A42K,N43A,L44I,D53W)1 (designed binder)”, for which the Capacity relative to reference in assay [1] came out at 1.35. The substance also showed a Capacity after 96-100 cycles in assay [2] of 62%.

For the substance “Zvar(Q9A,N11E,Q40V,A42K,N43A,L44I,D53Y)1 (designed binder)”, in assay [1], the Capacity relative to reference is 1.28. In assay [2], this substance registered a Capacity after 96-100 cycles of 59%.

For “Zvar(Q9A,N11E,Q40V,A42K,N43del,L44I)1 (designed binder)”, in assay [1], the Capacity relative to reference stood at 1.2. For the same substance, in assay [2], the Capacity after 96-100 cycles came to 55%.

For “Zvar(Q9A,N11E,Q40V,A42del,N43A,L44I)1 (designed binder)”, the Capacity relative to reference in assay [1] amounted to 1.24. For the same substance, in assay [2], the Capacity after 96-100 cycles was 57%.

Take “Zvar(Q9A,N11E,Q40del,A42K,N43A,L44I)1 (designed binder)”: in assay [1], the Capacity relative to reference came out at 1.28. Besides, the Capacity after 96-100 cycles in assay [2] stood at 59%.

Regarding “Zvar(Q9A,N11K,H18K,D37E,A42R,N43A,L44I)1 (designed binder)”, in assay [1], the Capacity relative to reference was found to be 1.4. In assay [2], this substance came in with a Capacity after 96-100 cycles of 63%.

As to “Zvar(Q9A,N11K,H18K,D37E,A42R,N43A,L44I,K50R)1 (designed binder)”, the Capacity relative to reference in assay [1] is 1.49. In assay [2], this substance came in with a Capacity after 96-100 cycles of 67%.

Take “Zvar(Q9A,N11K,H18K,S33K,D37E,A42R,N43A,L44I,K50R,L51Y)1 (designed binder)”: the Capacity relative to reference in assay [1] worked out at 1.28. This substance also displayed a Capacity after 96-100 cycles in assay [2] of 59%.

“Zvar(Q9del,N11E,Q40V,A42K,N43A,L44I)1 (designed binder)”: in assay [1], the Capacity relative to reference was found to be 1.3. This substance also showed a Capacity after 96-100 cycles in assay [2] of 60%.
